B1: E61R, Q93D82 (parent)
chain: MSTAIVTNVKHFGGMGSALRLSEAGHTVACHDESFKQKDELEAFAETYPQLKPMSEQEPAELIEAVTSAYGQVDVLVSNDIFAPEFQPIDKYAVEDYRGAVEALQIRPFALVNAVASQMKKRKSGHIIFITSATPFGPWKELSTYTSARAGACTLANALSKELGEYNIPVFAIGPNYLHSEDSPYFYPTEPWKTNPEHVAHVKKVTALQRLGTQKELGELVAFLASGSCDYLTGQVFWLAGGFPMIERWPGMPE

Variants of: B1
Conditions: Rhizobium radiobacter; pH 7.7; Thermal; CD; Phosphate 5mM; structure 1PWX; whole UniProt chain shown

Variant	Tm	change of melting temperature, mutant - wild type (higher = more stable)
MSTAIVTNVKHFGGMGSALRLSEAGHTVACHDESFKQKDELEAFAETYPQLKPMSEQEPARLIEAVTSAYGQVDVLVSNDIFAPEFQPIDKYAVEDYRGAVEALQIRPFALVNAVASQMKKRKSGHIIFITSATPFGPWKELSTYTSARAGACTLANALSKELGEYNIPVFAIGPNYLHSEDSPYFYPTEPWKTNPEHVAHVKKVTALQRLGTQKELGELVAFLASGSCDYLTGQVFWLAGGFPMIERWPGMPE [E61R]	64.5 °C	-0.5 °C
MSTAIVTNVKHFGGMGSALRLSEAGHTVACHDESFKQKDELEAFAEHYPQLKPMSEQEPAELIEAVTSAYGQVDVLVSNDIFAPEFQPIDKYAVEDYRGAVEALQIRPFALVNAVASQMKKRKSGHIIFITSATPFGPWKELSTYTSARAGACTLANALSKELGEYNIPVFAIGPNYLHSEDSPYFYPTEPWKTNPEHVAHVKKVTALQRLGTQKELGELVAFLASGSCDYLTGQVFWLAGGFPMIERWPGMPE [T47H]	63.5 °C	-1.5 °C
MSTAIVTNVKHFGGMGSALRLSEAGHTVACHDESFKQKDELEAFAETYPQLKPMSEQEPAELIEAVTSLYGQVDVLVSNDIFAPEFQPIDKYAVEDYRGAVEALQIRPFALVNAVASQMKKRKSGHIIFITSATPFGPWKELSTYTSARAGACTLANALSKELGEYNIPVFAIGPNYLHSEDSPYFYPTEPWKTNPEHVAHVKKVTALQRLGTQKELGELVAFLASGSCDYLTGQVFWLAGGFPMIERWPGMPE [A69L]	64.5 °C	-0.5 °C
MSTAIVTNVKHFGGMGSALRLSEAGHTVACHDESFKQKEELEAFAETYPQLKPMSEQEPAELIEAVTSAYGQVDVLVSNDIFAPEFQPIDKYAVEDYRGAVEALQIRPFALVNAVASQMKKRKSGHIIFITSATPFGPWKELSTYTSARAGACTLANALSKELGEYNIPVFAIGPNYLHSEDSPYFYPTEPWKTNPEHVAHVKKVTALQRLGTQKELGELVAFLASGSCDYLTGQVFWLAGGFPMIERWPGMPE [D39E]	65 °C	0 °C
MSTAIVTNVKHFGGMGSALRLSEAGHTVACHDESFKQKDELEAFAETYPQLKPMSEQEPAELIEAVTSAYGQVDVLVSNDIFNPEFQPIDKYAVEDYRGAVEALQIRPFALVNAVASQMKKRKSGHIIFITSATPFGPWKELSTYTSARAGACTLANALSKELGEYNIPVFAIGPNYLHSEDSPYFYPTEPWKTNPEHVAHVKKVTALQRLGTQKELGELVAFLASGSCDYLTGQVFWLAGGFPMIERWPGMPE [A83N]	63 °C	-2 °C
MSTAIVTNVKHFGGMGSALRLSEAGHTVACHDESFKQKDELEAFAETYPQLKPMSEQEPAELIEAVTSAYGQVDVLVSNDIFAPEFQPIDKYAVEDYRHAVEALQIRPFALVNAVASQMKKRKSGHIIFITSATPFGPWKELSTYTSARAGACTLANALSKELGEYNIPVFAIGPNYLHSEDSPYFYPTEPWKTNPEHVAHVKKVTALQRLGTQKELGELVAFLASGSCDYLTGQVFWLAGGFPMIERWPGMPE [G99H]	65 °C	0 °C
MSTAIVTNVKHFGGMGSALRLSEAGHTVACHDESFKQKDELEAFAETYPQLKPMSEQEPAELIEAVTSKYGQVDVLVSNDIFAPEFQPIDKYAVEDYRGAVEALQIRPFALVNAVASQMKKRKSGHIIFITSATPFGPWKELSTYTSARAGACTLANALSKELGEYNIPVFAIGPNYLHSEDSPYFYPTEPWKTNPEHVAHVKKVTALQRLGTQKELGELVAFLASGSCDYLTGQVFWLAGGFPMIERWPGMPE [A69K]	63.5 °C	-1.5 °C
MSTAIVTNVKHFGGMGSALRLSEAGHTVACHDESFKQKDELEAFAETYPQLKPMSEQEPAELIEAVTSAYGQVDVLVSNDIFAPEFQPIDKYAVEDYRRAVEALQIRPFALVNAVASQMKKRKSGHIIFITSATPFGPWKELSTYTSARAGACTLANALSKELGEYNIPVFAIGPNYLHSEDSPYFYPTEPWKTNPEHVAHVKKVTALQRLGTQKELGELVAFLASGSCDYLTGQVFWLAGGFPMIERWPGMPE [G99R]	55.5 °C	-9.5 °C
MSTAIVTNVKHFGGMGSALRLSEAGHTVACHDESFKQKDELEAFAETYPQLKPMSEQEPAELIEAVTSAYGQVDVLVSNDIFAPEFQPIDKYAVEHYRGAVEALQIRPFALVNAVASQMKKRKSGHIIFITSATPFGPWKELSTYTSARAGACTLANALSKELGEYNIPVFAIGPNYLHSEDSPYFYPTEPWKTNPEHVAHVKKVTALQRLGTQKELGELVAFLASGSCDYLTGQVFWLAGGFPMIERWPGMPE [D96H]	56 °C	-9 °C
MSTAIVTNVKHFGGMGSALRLSEAGHTVACHDESFKQKDELEAFAETYPQLKPMSEQEPAELIEAVTSAYGQVDVLVSNDIFAPEFQPIDKYAVEDYRGAVEALQIRPFALVNAVASQMKKRKSGVIIFITSATPFGPWKELSTYTSARAGACTLANALSKELGEYNIPVFAIGPNYLHSEDSPYFYPTEPWKTNPEHVAHVKKVTALQRLGTQKELGELVAFLASGSCDYLTGQVFWLAGGFPMIERWPGMPE [H126V]	64.5 °C	-0.5 °C
MSTAIVTNVKHFGGMGSALRLSEAGHTVACHDESFKEKDELEAFAETYPQLKPMSEQEPAELIEAVTSAYGQVDVLVSNDIFAPEFQPIDKYAVEDYRGAVEALQIRPFALVNAVASQMKKRKSGHIIFITSATPFGPWKELSTYTSARAGACTLANALSKELGEYNIPVFAIGPNYLHSEDSPYFYPTEPWKTNPEHVAHVKKVTALQRLGTQKELGELVAFLASGSCDYLTGQVFWLAGGFPMIERWPGMPE [Q37E]	65 °C	0 °C
MSTAIVTNVKHFGGMGSALRLSEAGHTVACHDESFKQKDELEAFAETYPQLKPMSEQEPAELIEAVTQAYGQVDVLVSNDIFAPEFQPIDKYAVEDYRGAVEALQIRPFALVNAVASQMKKRKSGHIIFITSATPFGPWKELSTYTSARAGACTLANALSKELGEYNIPVFAIGPNYLHSEDSPYFYPTEPWKTNPEHVAHVKKVTALQRLGTQKELGELVAFLASGSCDYLTGQVFWLAGGFPMIERWPGMPE [S68Q]	63 °C	-2 °C
MSTAIVTNVKHFGGMGSALRLSEAGHTVACHDESFKQKDELEAFAETYPQLKPMSEQEPAELIEAVTNAYGQVDVLVSNDIFAPEFQPIDKYAVEDYRGAVEALQIRPFALVNAVASQMKKRKSGHIIFITSATPFGPWKELSTYTSARAGACTLANALSKELGEYNIPVFAIGPNYLHSEDSPYFYPTEPWKTNPEHVAHVKKVTALQRLGTQKELGELVAFLASGSCDYLTGQVFWLAGGFPMIERWPGMPE [S68N]	65.5 °C	0.5 °C
MSTAIVTNVKHFGGMGSALRLSEAGHLVACHDESFKQKDELEAFAETYPQLKPMSEQEPAELIEAVTSAYGQVDVLVSNDIFAPEFQPIDKYAVEDYRGAVEALQIRPFALVNAVASQMKKRKSGHIIFITSATPFGPWKELSTYTSARAGACTLANALSKELGEYNIPVFAIGPNYLHSEDSPYFYPTEPWKTNPEHVAHVKKVTALQRLGTQKELGELVAFLASGSCDYLTGQVFWLAGGFPMIERWPGMPE [T27L]	65 °C	0 °C
MSTAIVTNVKHFGGMGSALRLSEAGHTVACHDESFKQKDELEAFAETYPQLKPMSEQEPAELIEAVTSAYGQVDVLVSNDIFMPEFQPIDKYAVEDYRGAVEALQIRPFALVNAVASQMKKRKSGHIIFITSATPFGPWKELSTYTSARAGACTLANALSKELGEYNIPVFAIGPNYLHSEDSPYFYPTEPWKTNPEHVAHVKKVTALQRLGTQKELGELVAFLASGSCDYLTGQVFWLAGGFPMIERWPGMPE [A83M]	65.5 °C	0.5 °C
MSTAIVTNVKHFGGMGSALRLSEAGHTVACHDESFKQKDELEAFAETYPQLKPMSEQEPAELIEAVTSAYGQVDVLVSNDIFAPEFQPIDKYAVEDYRGAVEALQIRPFALVNAVASQMKKRKSGHIIFITSATPFGPWSELSTYTSARAGACTLANALSKELGEYNIPVFAIGPNYLHSEDSPYFYPTEPWKTNPEHVAHVKKVTALQRLGTQKELGELVAFLASGSCDYLTGQVFWLAGGFPMIERWPGMPE [K140S]	62.5 °C	-2.5 °C
MSTAIVTNVKHFGGMGSALRLSEAGHTVACHDESFKQKDELEAFAETYPQLKPMSEQEPAELIEAVTSAYGQVDVLVSNDIFAPEFQPIDKYAVEDYRGAVEALQIRPFALVNAVAAQMKKRKSGHIIFITSATPFGPWKELSTYTSARAGACTLANALSKELGEYNIPVFAIGPNYLHSEDSPYFYPTEPWKTNPEHVAHVKKVTALQRLGTQKELGELVAFLASGSCDYLTGQVFWLAGGFPMIERWPGMPE [S117A]	63.5 °C	-1.5 °C
MSTAIVTNVKHFGGMGSALRLSEAGHTVACHDESFKQKDELEAFAETYPQLKPMSEQEPAELIEAVTSAYGQVDVLVSNDIFAPEFQPIDKYAVEDYIGAVEALQIRPFALVNAVASQMKKRKSGHIIFITSATPFGPWKELSTYTSARAGACTLANALSKELGEYNIPVFAIGPNYLHSEDSPYFYPTEPWKTNPEHVAHVKKVTALQRLGTQKELGELVAFLASGSCDYLTGQVFWLAGGFPMIERWPGMPE [R98I]	64.5 °C	-0.5 °C
MSTAIVTNVKHFGGMGSALRLSEAGHTVACHDESFKQKDELEAFAETYPQLKPMSEQEPAELIEAVTSAYGQVDVLVSNDIFAPEFQPIDKYTVEDYRGAVEALQIRPFALVNAVASQMKKRKSGHIIFITSATPFGPWKELSTYTSARAGACTLANALSKELGEYNIPVFAIGPNYLHSEDSPYFYPTEPWKTNPEHVAHVKKVTALQRLGTQKELGELVAFLASGSCDYLTGQVFWLAGGFPMIERWPGMPE [A93T]	69.5 °C	4.5 °C
MSTAIVTNVKHFGGMGSALRLSEAGHTVACHDESFKQKDELEAFAETYPQLKPMSEQEPAELIEAVTSAYGQVDVLVSNDIFAPEWQPIDKYAVEDYRGAVEALQIRPFALVNAVASQMKKRKSGHIIFITSATPFGPWKELSTYTSARAGACTLANALSKELGEYNIPVFAIGPNYLHSEDSPYFYPTEPWKTNPEHVAHVKKVTALQRLGTQKELGELVAFLASGSCDYLTGQVFWLAGGFPMIERWPGMPE [F86W]	64.5 °C	-0.5 °C
MSTAIVTNVKHFGGMGSALRLSEAGHTVACHDESFKQKDELEAFAETYPQLKPMSEQEPAELIEAVTSAYGQVDVLVSNDIFAPEFQPIDKYAVEDYRGAVEALQIRPFALVNAVASQMKKRKSGHIIFITSATPFGPWKELSTYTSARAGACTLANALSKELGEYNIPVFAIGPNYLHSEDSPYFYPTEPWKTNPEHVAHVKKLTALQRLGTQKELGELVAFLASGSCDYLTGQVFWLAGGFPMIERWPGMPE [V205L]	63.5 °C	-1.5 °C
MSTAIVTNVKHFGGMGSALRLSEAGHTVACHDESFKQKDELEAFAETYPQLKPMSEQEPAELIEAVTSAYGQVDVLVSNDIFAPEFQPIDKYAVEDYRGAVEALQIRPFAWVNAVASQMKKRKSGHIIFITSATPFGPWKELSTYTSARAGACTLANALSKELGEYNIPVFAIGPNYLHSEDSPYFYPTEPWKTNPEHVAHVKKVTALQRLGTQKELGELVAFLASGSCDYLTGQVFWLAGGFPMIERWPGMPE [L111W]	57 °C	-8 °C
MSTAIVTNVKHFGGMGSALRLSEAGHTVLCHDESFKQKDELEAFAETYPQLKPMSEQEPAELIEAVTSAYGQVDVLVSNDIFAPEFQPIDKYAVEDYRGAVEALQIRPFALVNAVASQMKKRKSGHIIFITSATPFGPWKELSTYTSARAGACTLANALSKELGEYNIPVFAIGPNYLHSEDSPYFYPTEPWKTNPEHVAHVKKVTALQRLGTQKELGELVAFLASGSCDYLTGQVFWLAGGFPMIERWPGMPE [A29L]	68 °C	3 °C
